The text below walks through data of US20240343803A1 (SHANDONG SIMCERE BIOPHARMACEUTICAL, published 2024).

In assay [1] the target is T1, human PVRIG on FlpinCHO-PVRIG cells (human, UniProt Q6DKI7 41-326).
T1 construct: whole, on cells
T1 sequence (looked up): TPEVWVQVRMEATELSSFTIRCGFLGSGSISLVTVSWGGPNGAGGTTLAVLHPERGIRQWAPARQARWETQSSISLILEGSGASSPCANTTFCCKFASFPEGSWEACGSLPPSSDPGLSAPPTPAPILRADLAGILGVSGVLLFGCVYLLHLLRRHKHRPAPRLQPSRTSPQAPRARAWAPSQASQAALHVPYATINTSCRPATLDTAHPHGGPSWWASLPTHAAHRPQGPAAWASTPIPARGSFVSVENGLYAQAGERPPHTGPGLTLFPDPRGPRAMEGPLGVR
The assay can be described thus: FACS, FlpinCHO-PVRIG cells. As to the method: The Ham's F12 (Gibico, 21127-022) complete medium containing 10% FBS was then added to terminate the digestion and acquire cell suspension. After counting with a cell counter (Beckman Coulter, Vi-CELL), an appropriate amount of cell suspension was centrifuged at 350×g to remove the supernatant, washed twice with PBS, stained with Zombie violet (Biolegend, 423114) and incubated at room temperature for 20 minutes. After incubation, the cells were added with staining buffer (2% FBS+PBS) to stop staining, centrifuged at 350×g to remove the supernatant, washed twice and resuspended with staining buffer to a density of 2×10⁶ cells/mL. The cells were plated into a 96-well plate (50 μL of cell suspension per well) for further use. The antibodies were diluted from the highest concentration of 46 nM (two-fold concentration) with staining buffer by 3.3-fold serial dilution. The diluted antibodies were added to the well containing 50 μL of cell suspension. The plate was placed on a microplate shaker at 400 rpm for 1 minute to fully mix the antibodies and cells, and then incubated at 4° C. for 30 minutes. After the incubation, the cells were washed twice with staining buffer (200 μL per well) and centrifuged at 350×g for 5 minutes to discard the supernatant. The PE goat anti-human IgG Fc antibody (ebioscience, 12-4998-82) was diluted 250 times with staining buffer, added into the washed wells (100 μL per well), mixed well, and stained at 4° C. for 30 minutes. After staining, the cells were washed twice with staining buffer, finally resuspended with 200 μL staining buffer and analyzed by flow cytometry (BD, Canto II). The stronger the signal, the stronger the ability of the antibodies binds to PVRIG. An antibody binding curve was drawn with concentration of antibodies as the abscissa and the corresponding Mean Fluorescence Intensity (MFI) as the ordinate. The AUC value of the curve was calculated by using a Four Parameter Logistic Fit (GraphPadPrism9). The stronger the AUC value, the stronger the ability of the antibodies binds to FlpinCHO-PVRIG and FlpinCHO-cyno PVRIG. […] The binding activity of the antibodies was normalized to the positive control COM701-hIgG1 and SRF813-hIgG1.

Assay [2] concerns the target T2, human PVRIG-his (AcroBiosystems, Cat NO. PVG-H52H4) (human, UniProt Q6DKI7 41-171, limits assumed).
T2 construct: also called human PVRIG protein
T2 sequence (looked up): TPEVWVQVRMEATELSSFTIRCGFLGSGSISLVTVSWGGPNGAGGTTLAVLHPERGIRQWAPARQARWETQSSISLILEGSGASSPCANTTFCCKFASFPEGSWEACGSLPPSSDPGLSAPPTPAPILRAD
The assay can be described thus: competition ELISA, PVRIG-His coated, competitor human PVRL2-mFc. Further details: AUC: unit not given here. On the technique in general: An ELISA detects its analyte on a solid surface through an enzyme-linked reagent.

B1: PVRIG-A118-H7 (Fc fusion)
chain: EVQLVESGGGLVQPGGSLRLSCAASETYFDLYVMGWYRQAPGKDRELVATITYTGSIKYVDSVKGRFTISRGDAKNSLYLQMNSLRAEDTAVYFCNADPSGLGRKVYWGQGTMVTVSS
notes: humanized variant of PVRIG-A118; also called A118.VH7; not shown: constant part not restated for the humanized forms; parents are VHH-hinge-CH2-CH3 of human IgG1; detected by anti-human
Broadly, the IC50 is the concentration needed to halve the response being measured. B1: in assay [1], the “AUC % to COM701-hIgG1” value turned out to be 126%, the “AUC % to SRF813-hIgG1” value came out at 177% and the “AUC % to parental Ab” value was 92.7%. In addition, in assay [2], the “% relative activity (AUC) parental antibody/test antibody” value was 114%, the “% relative activity (IC50) parental antibody/test antibody” value stood at 129%, the AUC stood at 1.38 and the concentration for half-maximal inhibition (IC50) is 0.43 nM.

B2: PVRIG-A118-H3 (Fc fusion)
chain: EVQLVESGGGLVQPGGSLRLSCAASETYFDLYVMGWYRQAPGKDRELVATITYTGSIKYVDSVKGRFTISRGDAKNSLYLQMNSLRAEDTAVYYCNADPSGLGRKVYWGQGTMVTVSS
notes: humanized variant of PVRIG-A118; also called A118.VH3; not shown: constant part not restated for the humanized forms; parents are VHH-hinge-CH2-CH3 of human IgG1; detected by anti-human
B2: in assay [1], the “AUC % to COM701-hIgG1” value is 129%, the “AUC % to SRF813-hIgG1” value was determined as 180% and the “AUC % to parental Ab” value is 94.5%. In assay [2], the “% relative activity (AUC) parental antibody/test antibody” value was found to be 106%, the “% relative activity (IC50) parental antibody/test antibody” value was 144%, the AUC was 1.49 and the IC50 came to 0.386 nM.

B3: PVRIG-A118-H1 (Fc fusion)
chain: EVQLVESGGGLVQPGGSLRLSCAASETYFDLYVMGWYRQAPGKDRELVATITYTGSIYYVDSVKGRFTISRDNAKNSLYLQMNSLRAEDTAVYYCNADPSGLGRKVYWGQGTMVTVSS
notes: humanized variant of PVRIG-A118; also called A118.VH1; not shown: constant part not restated for the humanized forms; parents are VHH-hinge-CH2-CH3 of human IgG1; detected by anti-human
As to B3, in assay [1], the “AUC % to COM701-hIgG1” value came out at 127%, the “AUC % to SRF813-hIgG1” value turned out to be 178% and the “AUC % to parental Ab” value is 93.2%. In assay [2], the “% relative activity (AUC) parental antibody/test antibody” value was found to be 121%, the “% relative activity (IC50) parental antibody/test antibody” value was 157%, the AUC was determined as 1.31 and the IC50 turned out to be 0.355 nM.

B4: PVRIG-A118-H2 (Fc fusion)
chain: EVQLVESGGGLVQPGGSLRLSCAASETYFDLYVMGWYRQAPGKDRELVATITYTGSIKYVDSVKGRFTISRDNAKNSLYLQMNSLRAEDTAVYYCNADPSGLGRKVYWGQGTMVTVSS
notes: humanized variant of PVRIG-A118; also called A118.VH2; not shown: constant part not restated for the humanized forms; parents are VHH-hinge-CH2-CH3 of human IgG1; detected by anti-human
For B4, in assay [1], the “AUC % to COM701-hIgG1” value was 125%, the “AUC % to SRF813-hIgG1” value was found to be 174% and the “AUC % to parental Ab” value amounted to 91.3%. In assay [2], the “% relative activity (AUC) parental antibody/test antibody” value was 117%, the “% relative activity (IC50) parental antibody/test antibody” value was determined as 156%, the AUC stood at 1.35 and the IC50 was found to be 0.357 nM.

B5: PVRIG-A50-H1 (Fc fusion)
chain: EVQLVESGGGLVQPGGSLRLSCAASGFTFSYYDMSWVRQAPGKGLEWVSTINSNGGRTSYVDSVKGRFTISRDNSKNTLYLQMNSLRAEDTAVYYCVEGDPHNFGLENLSLRDFGSWGQGTMVTVSS
notes: humanized variant of PVRIG-A50; also called A50.VH1; not shown: constant part not restated for the humanized forms; parents are VHH-hinge-CH2-CH3 of human IgG1; detected by anti-human
As for B5, in assay [1], the “AUC % to COM701-hIgG1” value came to 74.4%, the “AUC % to SRF813-hIgG1” value is 132% and the “AUC % to parental Ab” value was found to be 101%. In assay [2], the “% relative activity (AUC) parental antibody/test antibody” value is 82.6%, the “% relative activity (IC50) parental antibody/test antibody” value amounted to 77.5%, the AUC was determined as 2.42 and the IC50 stood at 1 nM.

B6: PVRIG-A50-H1d (Fc fusion)
chain: EVQLVESGGGLVQPGGSLRLSCAASGFTFSYYDMSWVRQAPGKGLEWVSTINSNGGRTSYVDSVKGRFTISRDNSKNTLYLQMNSLRAEDTAVYYCVEGDPHNFGLESLSLRDFGSWGQGTMVTVSS
notes: humanized variant of PVRIG-A50; also called A50.VH1d; not shown: constant part not restated for the humanized forms; parents are VHH-hinge-CH2-CH3 of human IgG1; detected by anti-human
On to B6, for which, in assay [1], the “AUC % to COM701-hIgG1” value was determined as 63.1%, the “AUC % to SRF813-hIgG1” value was determined as 112% and the “AUC % to parental Ab” value stood at 85.9%. Also, in assay [2], the “% relative activity (AUC) parental antibody/test antibody” value came to 83.2%, the “% relative activity (IC50) parental antibody/test antibody” value worked out at 75%, the AUC stood at 2.4 and the IC50 was 1.03 nM.
